Experimental data taken from patent CN117425675A (XINSHI BIOPHARMACEUTICAL CO LTD, dated 2024).

T1: human TNFR2 expressed on cells (stably overexpressed on HEK293T, CHO-K1 or Jurkat cells; endogenous on THP1) (human (Homo sapiens), UniProt P20333 23-461)
T1 construct: also called 人TNFR2; hTNFR2
T1 sequence: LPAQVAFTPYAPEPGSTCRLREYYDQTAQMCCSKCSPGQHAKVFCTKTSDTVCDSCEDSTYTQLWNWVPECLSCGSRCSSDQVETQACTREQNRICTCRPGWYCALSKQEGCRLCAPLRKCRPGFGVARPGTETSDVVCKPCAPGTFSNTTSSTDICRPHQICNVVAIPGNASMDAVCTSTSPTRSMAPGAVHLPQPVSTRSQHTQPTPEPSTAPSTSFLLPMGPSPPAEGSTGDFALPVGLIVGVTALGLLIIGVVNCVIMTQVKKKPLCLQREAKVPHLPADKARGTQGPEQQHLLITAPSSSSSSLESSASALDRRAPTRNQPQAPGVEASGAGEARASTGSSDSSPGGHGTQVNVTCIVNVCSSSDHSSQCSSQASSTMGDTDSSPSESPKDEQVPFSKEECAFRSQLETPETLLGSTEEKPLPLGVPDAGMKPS

T2: mouse TNFR2 stably overexpressed on HEK293T cells (mouse (Mus musculus), UniProt P25119 23-474)
T2 construct: also called 鼠TNFR2
T2 sequence: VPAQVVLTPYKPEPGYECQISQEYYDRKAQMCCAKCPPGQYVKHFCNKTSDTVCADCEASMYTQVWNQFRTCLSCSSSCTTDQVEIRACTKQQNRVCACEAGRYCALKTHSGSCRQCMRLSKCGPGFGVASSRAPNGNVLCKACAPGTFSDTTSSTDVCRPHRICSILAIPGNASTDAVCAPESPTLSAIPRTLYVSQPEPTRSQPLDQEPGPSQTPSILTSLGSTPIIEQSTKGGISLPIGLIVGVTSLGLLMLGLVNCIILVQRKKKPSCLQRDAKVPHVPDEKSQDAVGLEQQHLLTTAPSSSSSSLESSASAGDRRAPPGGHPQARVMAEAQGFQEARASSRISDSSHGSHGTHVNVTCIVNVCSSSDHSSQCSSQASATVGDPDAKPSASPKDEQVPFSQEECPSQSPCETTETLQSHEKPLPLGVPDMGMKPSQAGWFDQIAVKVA

T3: human TNFR1 stably overexpressed on CHO-K1 cells (human (Homo sapiens), UniProt P19438 30-455)
T3 construct: also called 人TNFR1; TNFRSF1A
T3 sequence: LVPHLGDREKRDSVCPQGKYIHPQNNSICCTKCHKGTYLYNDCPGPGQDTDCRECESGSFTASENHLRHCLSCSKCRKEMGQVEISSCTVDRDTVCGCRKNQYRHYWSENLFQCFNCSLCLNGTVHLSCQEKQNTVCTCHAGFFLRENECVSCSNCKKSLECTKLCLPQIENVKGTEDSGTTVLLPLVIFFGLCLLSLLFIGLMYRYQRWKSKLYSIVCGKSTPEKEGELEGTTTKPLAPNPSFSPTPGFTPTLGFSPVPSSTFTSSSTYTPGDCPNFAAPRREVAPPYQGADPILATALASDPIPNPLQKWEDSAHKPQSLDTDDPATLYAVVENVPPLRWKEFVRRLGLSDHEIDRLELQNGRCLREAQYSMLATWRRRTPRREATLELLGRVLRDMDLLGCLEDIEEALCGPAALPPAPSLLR


Key:
[1] = target: T1, human TNFR2 expressed on cells (stably …); assay: binding to cells stably overexpressing human TNFR2 (flow cytometry / imaging; text says HEK293T, table title says CHO-K1)
[2] = target: T2, mouse TNFR2 stably overexpressed on …; assay: flow cytometry on HEK293T cells stably overexpressing mouse TNFR2
[3] = target: T3, human TNFR1 stably overexpressed on …; assay: flow cytometry on CHO-K1 cells stably overexpressing human TNFR1

Row | Binder | EC50 [1] [nM] | binding result [2] | binding result [3]
1 | R2_mAb-3 (antibody, V domains shown, also called R2-3) VH: QVQLQESGPGLVKPSETLSLTCTVSGGSISSYYWSWIRQAPGKGLEWIGYIYYSGSTNYNPSLKSRVTISVDTSKNQFSLKLSSVTAADTAVYYCARDDGSSDYGMDVWGQGTTVTVSS VL: AIQLTQSPSSLSASVGDRVTITCRASQGISSALAWYQQKPGKAPKLLIYDASSLESGVPSRFTGSGTDFTLTISSLQPEDFATYYCQQFNNYMYTFGQGTKLEIK | 0.38 | no binding (tested: 10μg/mL) | no binding (tested: 10μg/mL)
2 | R2_mAb-2 (antibody, V domains shown, also called R2-2) VH: QVQLVQSGPEVKKPGASVKVSCKASGYTFTNYGISWVRQAPGQGLEWMGWINAYNGNTNYAQKLQGRVTMTTDTSTSTAYMELRSLRSDDTAVYYCARDGGYGSGTYHNDYYYYYGMDVWGQGTTVTVSS VL: EIVLTQSPDFQSMTPEEKVTITCRASQSIGSNLHWYQQKPDQSPKLLIKFASQSISGVPSRFSGSGSGTDFTLTINSLEAEDAATYYCHQSSSLPFTFGPGTKVDIK | 0.35 | no binding (tested: 10μg/mL) | no binding (tested: 10μg/mL)
3 | R2_mAb-1 (antibody, V domains shown, The VH/VL pair is read from parallel lists; also called R2-1) VH: QVQLVESGGGVVQPGRSLRLSCAASGFTFSSYGMHWVRQAPGKGLEWVAVIWFDEDNKDYADSVKGRFTISRDNSKNTLYLQMSSLRAEDTAVYYCARDNDILTGYYYYYGMDVWGQGTTVTVSS VL: DIQLTQSPSFLSASVGDRVTITCRASQDISSYLAWYQQKPGKAPKLLIYAASTLQSGVPSRFSGSGSGTEFTLTISSLQPEDFATYYCQQLNSYPPTFGQGTKVEIK | 0.1 | no binding (tested: 10μg/mL) | no binding (tested: 10μg/mL)

Now from value to binder:

Row | EC50 [1] [nM] | binding result [2] | binding result [3] | Binder
4 | 0.1 | no binding (tested: 10μg/mL) | no binding (tested: 10μg/mL) | R2_mAb-5 (antibody, V domains shown, The mouse IgG2a, IgG1 and IgG1 D265A chimeras were used only in the tumour models; also called R2-5) VH: QVQLVQSGAEVKKPGASVTVSCKASGYTFSTYGIIWVRQAPGQGLEWMGWISAFNGNANSAQKLQDRVTMTTDTSTSTAYMELRSLRSDDTAVYYCARGEDFFDYWGQGTLVTVSS VL: DIVMTQTPLSSPVTLGQPASISCRSSQSLVHSDGNTYLSWLQQRPGQPPRLLIYKVSSRFSGVPDRFSGSGAGTDFTLKISRVEAEDVGVYYCTQSTQFPFTFGRGTKLEIK
5 | 0.14 | no binding (tested: 10μg/mL) | no binding (tested: 10μg/mL) | R2_mAb-6 (antibody, V domains shown, also called R2-6) VH: QVQLVQSGAEVKKPGASVKVSCKASGYTFLSYGLSWVRQAPGQGLEWMGWINAYNGNTNYAQNLQDRVTMTTDTSTSTAYMELRSLRSDDMAVYYCARWDILTAYYSSDAFDIWGQGTMVTVSS VL: DIVMTQTPLSSPVTLGQPASISCRSSQSLVHSDGNTYLNWLQQRPGQPPRLLIYKVSNRFSGVPDRFSGSGAGTDFTLKISRVEAEDVGVYYCTQTTQFPITFGQGTRLEIK
6 | 0.11 | no binding (tested: 10μg/mL) | no binding (tested: 10μg/mL) | R2_mAb-4 (antibody, V domains shown, The mouse IgG2a chimera was used only in the tumour models; also called R2-4) VH: QVQLVQSGAEVRKPGASVKVSCKASGYTFTSYSVTWVRQAPGQGLEWMGWINAFSGNTHYAQNLQDRVTMTTDTSTSTAYMELRSLRSDDTAVYYCAREEGSGSYEDYYGMDVWGQGTTVTVSS VL: not shown
